Laboratory results from PMC6331412, “Protein Disulfide Isomerase Modulates the Activation of Thyroid Hormone Receptors” (Frontiers in Endocrinology, 2018).
Primed or numbered codes have the meaning given here. Ends that are not written are not given here. FITC′ = fluorescein isothiocyanate label

Tests used:
[1] = target: Fluorescein-SRC1–1 Coactivator Peptide 3; experiment: fluorescence polarisation; TR+T3 or the complex TR+T3:PDIA1 titrated from 1 to 7,000 nM into 50 nM fluorescein-SRC1 peptide; buffer A or B; triplicate
[2] = target: hTRβΔAB (amino acids 102–461) labelled with FITC (human) (UniProt P10828); experiment: fluorescence polarisation; reduced PDIA1 (pre-incubated with 0.5 mM DTT for 30 min) titrated from 0.012 to 25 μM into 50 nM TR-FITC; 20 mM sodium phosphate pH 7.4, 150 mM NaCl, 5 mM MgCl2, no DTT in the buffer; with and without T3 by the methods, not given for the values
[3] = target: hTRα full length labelled with FITC (human) (UniProt P10827); experiment: as above
[4] = target: hTRβΔAB (amino acids 102–461) labelled with FITC (human) (UniProt P10828); experiment: fluorescence polarisation; oxidised PDIA1 (pre-incubated with 0.5 mM H2O2 for 30 min) titrated from 0.012 to 25 μM into 50 nM TR-FITC; 20 mM sodium phosphate pH 7.4, 150 mM NaCl, 5 mM MgCl2, no DTT in the buffer; with and without T3 by the methods, not given for the values
[5] = target: hTRα full length labelled with FITC (human) (UniProt P10827); experiment: as above
[6] = target: hTRβΔAB (amino acids 102–461) labelled with FITC (human) (UniProt P10828); experiment: fluorescence polarisation; PDIA1 titrated from 0.012 to 25 μM into 50 nM TR-FITC, without T3; 20 mM sodium phosphate pH 7.4, 150 mM NaCl, 5 mM MgCl2, 1 mM DTT; 20°C; Hill fit
[7] = target: hTRα full length labelled with FITC (human) (UniProt P10827); experiment: as above
[8] = target: hTRβΔAB (amino acids 102–461) labelled with FITC (human) (UniProt P10828); experiment: fluorescence polarisation; PDIA1 titrated from 0.012 to 25 μM into 50 nM TR-FITC pre-incubated with 3 times molar excess of T3; 20 mM sodium phosphate pH 7.4, 150 mM NaCl, 5 mM MgCl2, 1 mM DTT; 20°C; Hill fit
[9] = target: hTRα full length labelled with FITC (human) (UniProt P10827); experiment: as above
[10] = target: hTRβΔAB (amino acids 102–461), recombinant (human) (UniProt P10828); experiment: SEC; analytical gel filtration, Superdex 200 HR 10/300, buffer A or B with 150 mM NaCl and 2 mM DTT, 0.5 mL/min; hydrodynamic radii from calibration standards; proteins alone and mixed
[11] = target: hTRα full length, recombinant (human) (UniProt P10827); experiment: as above
[12] = target: T1, hTRβΔAB (amino acids 102–461), recombinant (human, UniProt P10828 102-461); experiment: fluorescence polarisation; TR+T3 or the complex TR+T3:PDIA1 titrated from 1 to 7,000 nM into 50 nM fluorescein-SRC1 peptide; buffer A or B; triplicate; settings: both partners purified
T1 construct: numbers fit TRβ1 (461 aa); Unlabelled protein, used in SEC, DLS and, pre-incubated with T3, in the SRC1 anisotropy; also called TRβDL; source: E. coli BL21(DE3), purified (Talon resin, SEC Superdex 75)
T1 sequence (looked up): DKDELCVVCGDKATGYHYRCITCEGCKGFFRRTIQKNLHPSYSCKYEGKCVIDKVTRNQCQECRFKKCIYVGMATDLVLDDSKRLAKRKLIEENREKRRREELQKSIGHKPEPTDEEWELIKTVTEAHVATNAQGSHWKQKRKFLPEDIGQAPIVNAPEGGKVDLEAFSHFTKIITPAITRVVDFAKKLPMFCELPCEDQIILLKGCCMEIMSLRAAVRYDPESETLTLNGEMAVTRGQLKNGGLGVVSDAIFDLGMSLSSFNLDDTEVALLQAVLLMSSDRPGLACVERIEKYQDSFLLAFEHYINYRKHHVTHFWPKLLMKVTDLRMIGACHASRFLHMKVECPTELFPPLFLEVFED

Molecule: TRβ+T3:PDIA1 complex (from UniProt P10828 102-461; P07237 18-508)
- Kd [1]: 390 nM

Molecule: hTRα full length, recombinant (from UniProt P10827-2 1-410) (receptor)
- Kd [1]: 290 nM

Molecule: hPDIA1 full length, recombinant (from UniProt P07237 18-508) (enzyme)
- Kd [2]: 4540 nM
- Kd [3]: 10700 nM
- Kd [4]: > 102000 nM
- Kd [5]: 7900 nM
- Kd [6]: 2710 nM
- Kd [7]: 2050 nM
- Kd [8]: 2810 nM
- Kd [9]: 1970 nM
- stoichiometry N [10]: 1
- stoichiometry N [11]: 1

Molecule: TRα+T3:PDIA1 complex (from UniProt P10827-2 1-410; P07237 18-508)
- Kd [1]: 700 nM

B1: Fluorescein-SRC1–1 Coactivator Peptide 3 (peptide)
peptide: {FITC′}-KYSQTSHKLVQLLTTTAEQQL
notes: also called SRC1 peptide; CoA peptide; source: bought: Life-technologies
- Kd [12]: 680 ± 60 nM
